According to the DeepSol protein solubility set:

Test: soluble on expression in E. coli; label from the status in PepcDB or PDB records

Sequence | soluble on expression in E. coli
MSLDLSASRSDGGDPLRPASPRLRSPVSDGGDPLRPASPRLRSPVSDGGDPLRPASPRLRSPLGASRPVVGLTAYLEQVRTGVWDIPAGYLPADYFEGITMAGGVAVLLPPQPVDPESVGCVLDSLHALVITGGYDLDPAAYGQEPHPATDHPRPGRDAWEFALLRGALQRGMPVLGICRGTQVLNVALGGTLHQHLPDILGHSGHRAGNGVFTRLPVHTASGTRLAELIGESADVPCYHHQAIDQVGEGLVVSAVDVDGVIEALELPGDTFVLAVQWHPEKSLDDLRLFKALVDAASGYAGRQSQAEPREGGSHHHHHH | soluble
MSLDNFIAGLPKLELHLHIEGSLEPELMFALGQRNGVALPWPDVASVRAAYEFDCLQSFLDLYYLGASVLITEQDFFDLTWAYLERCAADKVVHVEIFFDPQTHTARGVPFATVLGGIERALQRGEWEFGISWRLIMSFLRHLSEEDAFATLAEATPFLSRIHGIGLDSGEKGNPPSKFARVFARCRELGLPVVAHAGEEGPADYIWQAIRELEVRRIDHGVRCVDDPDLLRYLADTRLPLTVCPLSNTRLKVFDQMAHHNVLALLEQGLCVTINSDDPAYFGGYMNANFHALAHELGASMNQLCRLSLNAVEASWLSLADKARLTREGHHHHHH | soluble
MSLDNINHILSKELGISLKQVTSVIEMLDEGNTVPFIARYRKERTGGLTDEVLRKFNERLTYLRNLESRKEDVLRIIEEQEKLTPELKLKIEKATTLTEIEDIYRPFKAKKRTRATMAVEKGLKPLAELILSGEFNGDIVEEANKYINEEKGVKNEEEALQGAMDIISEIISDNADYRKWIRNFVQKDGIIQVKGSSEEQTPYEMYYDYKEPVRTIPSHRILAINRGEKEKILSVKVTCNDDKIIDYLNKKVLKENKITDKYLEESIKDSFKRLIYPSIEREIRSELTSKGEEGAIDIFKANLKALLMQAPIKGKVVMGFDPGFRTGCKVAILDETGKFVENTTVYPTAPQNRIDETISTLKKLIKKHGVQVISLGNGTASRESEEVIAKMLKEIKDETGKELFYVIVSEAGASVYSASELANKEYPDLDVTVRGAISIGRRLQDPLAELVKIDPKAIGVGQYQHDVTQKKLDESLAGIVEDCVNNVGVDLNIATPSLLSYISGINASIAKNIVDYREENGKFKSRKELLKVKRLGQKAYEQCAGFLRVMESKEALDNTSVHPESYKVAKELIKTLGYTEEDEGHHHHHH | soluble
MSLDNLITIYDKNDANNLAEHLYDTQGLGALSDWLTATVSNKLNGAEIFQGTYSINGTNADLIVEGRIIQCYVDENRAKQRLRIYYAKTSVIGNTIEVKAEPIFNDIRKSVLNKYDSGTEKITATQAWQNAKVLAKPAIPSQFSFSSLVDTLANVKIEKANFLEFFGGKEGSILDRFHGEFLKDNNTLRHEKSLGTDHKIKAIYTKNLTGLDLEIDAQSVLVGVYPFISSSSEGEDEITLPEEVIFTDYVDDYPAGYVSFVDFKDKATDVATLREAAKDWLKTNIDKQKPQVSGSIELVPLRHQRGYEKFVDLEKVSMGDGVDVYHPQLKVNMSARIVEYTFNVLTNSYDKLVVGNVKTNFLENTENNVSNLINDEGHHHHHH | soluble
MSLDNMAKRQTKDIETIIQKIYYAKNRHLGTYTPLKNNSELEEINNYIYDLFESNEQLIHSIEHTERRLRDIQLKEIERQFQPHFLFNTMQTIQYLITLSPKLAQTVVQQLSQMLRYSLRTNSHTVELNEELNYIEQYVAIQNIRFDDMIKLHIESSEEARHQTIGKMMLQPLIENAIKHGRDTESLDITIRLTLARQNLHVLVCDNGIGMSSSRLQYVRQSLNNDVFDTKHLGLNHLHNKAMIQYGSHARLHIFSKRNQGTLICYKIPLSRGNVDVEGHHHHHH | not soluble
MSLDNSRTRPRVGHIQFLNCLPLYWGLARTGTLLDFELTKDTPEKLSEQLVRGDLDIGPVTLVEFLKNADDLVAFPDIAVGCDGPVMSCVIVSQVPLDRLDGARVALGSTSRTSVRLAQLLLSERFGVQPDYYTCPPDLSLMMQEADAAVLIGDAALRANMIDGPRYGLDVHDLGALWKEWTGLPFVFAVWAARRDYAEREPVITRKVHEAFLASRNLSLEEVEKVAEQAARWEAFDEDTLAKYFTTLDFRFGAPQLEAVTEFARRVGPTTGFPADVKVELLKPEGHHHHHH | soluble
MSLDPTRVDLLSICKEILTYPEYQERLPAGSAHPNIDSPAIKSLYAEIGRHSRQQTHVPSHYQLPPGDHLLIKQLAKITQDLGTPAKLDEIMVTHGAQQAISLALRATTQKGDIVAVESPCYFGNLLMLESLGLKVVEIPSCPRDGMCPEALAKTMATWDIKALIVTPNFTNPTGAMMPLEKRQQLLLASGNIPIIEDDVFGGLSYDKPLPSLSLLDDKQRVIYVNSLSKTLDSRLRIGWMLAGRYRDQIEQYLLCENMGSLNLMQSAVATFLTSGKYRTHTARMGRVYQNNMRRFIQMLHQYLDEYESLKNRYQINAVQGSFLLWLRLPEDTDSYALYQACNKHRISLLPGTVFGTQEQYRHCVRLSVANFGHETDWSHAMQTLAKLIAKRVCEGHHHHHH | soluble
MSLDSLGAINKIQDFLQKQEYKTLEYNLTTTEVVMENVTAFWEEGFGELFEKAKQNNNNRKTSNGDDSLFFSNFSLLGTPVLKDINFKIERGQLLAVAGSTGAGKTSLLMMIMGELEPSEGKIKHSGRISFCSQFSWIMPGTIKENIIFGVSYDEYRYRSVIKACQLEEDISKFAEKDNIVLGEGGITLSGGQRARISLARAVYKDADLYLLDSPFGYLDVLTEKEIFESCVCKLMANKTRILVTSKMEHLKKADKILILMKVAAIFMGHFQNSKIYSQTLAQNSWDVILSTNLVQKEEIQS | soluble
MSLDVINQLPSPEALLEELHRVVSKPIRLMVVCGTHNRAILRYGIREELPDFIELVAGPGCSVCVMPTGHVDAFVKVARQPDVITATCEDLLKVRGSKESLADVLNEGVHRVEIISSPRQALELAYVEEDKIVVYPAVGFEATAPSIAETILEAAQNGVGNFCVIPSIRLLPPTIDALLLDPQLSIQGLLCSDHINTISDTEAYADLARKHSLSCCIAGFEKAEILQGILSMVKQIHRGESMVDASGAMVYSMEETARARRVVEEVFFPTETAWRGLGSIAESGFVIRDELALYDATKRFNVRFAEGTDQCMCHCNEIISGRALPPDCPAFGMACTLQNPVGPCMISNEGICAAYFKYKLESSRFSRLDVEGHHHHHH | soluble
MSLDVPLAQTVVWETHVGDFSNDPAGGFPESHRGKYLAFTDDGTSLEGHPDFPTGLAYLKKLGVTAVQLMPIYDFGSVDETTCDRYNWGYDPINYNVPEGSYSTNPFDGTTRIREVKQMVQALHSAGIKVIMDVVYNHMFSTDNWFERTVPKYFLRRKPNGALANGSGCGCDMATERKMFRRFIVESVTFWAREYHMDGFRFDLMGLIDVDTMNAVRAALNEIPGRGRDILMYGEPWSAGASAPLPADTLLAGKQGLAQLDDRIGHFCDTTRDTIKGHVFYSDRPGYVNGGMHANAVAVREAVDAWRHSDRPEGVAGQVIQYVSAHDDLTLWDKLCASLAASSLGSAVAEGDEENTVDVPKTLHDADFSEQGLDAVGPEMAQALHDVLGANRLSAGIVLTSAGIPFMLSGEEFARTKYGNSDSYDSTKELNWLDWNRAWHMRDLIGFYAKLIALRKSDARWFDGNRKIVDTEGDELVFRVGDYLVAVNPSDRTGVVDVAAAAVEGDSGEMHRYWCCLGVSGRGGGVSTGGGDDDYLIMPAHTFAIWRLQEGHHHHHH | not soluble
MSLDVTDAQAIADHWGRGDVFGLIVAALNQMAKPLDGLTVEELAPVDHFHSRGFPATVEFADRLPINAGEQILDIGCGLGGPARYMAKRFQCRVSGIDITGPFVEAANRLTALLHMEQQVEIAQGNGQRLPYPDSCFDGAYTQDVTMNVAERAGFFAEAYRVLKPGAFFALSEHGLGPQGKPHYPVPWSDDGTGAYLTAPAETRAILERTGFEAITVEDTGAKCVAGYGKVIERAEKGALPPLGLHLFMGESMVEKMRNAARNIEEGRTHPIQLICRKEGHHHHHH | soluble
MSLDYSTSLRFQSQLERSMTEALNALGYYHPSIDFTVSEDNQRLRAAVTLGEVTRLSEVDIVIRGEAEGDRDFQRLIRRSGLRVDAPLNHSLYDNLKSGIRNLALQKGYFNGDFQASRLEVIPELNQARVILHFDSGIRYLFGATTVEGSQIDENRVMSLRPFKQGEPYLVSQVGEFNQNLSNTDWFSSVFVEPDLSQLDEGRELPIKVTLAPQARNQLETGLGYSTDVGVRGSLKWKKPWVNSQGHSFDSSFSLSIPEQTITAGYKIPLEDALNEYYRIQYGMKHLDKRDTESLESNLSLERHWQLDGGWHRTVFIRYLLENYRQGLQDDNSQFLLPGMTYTRTRTRSNSGLLTWGDKQTITLEYGDPALLSETRVLRLQTGSSWLRTYARNHRALVRVDGGANLVDEFDQLSPSLRFFAGGDNNLRGYGYKSISPQDASGALTGAKYIATSSIEYQYRLTGNWWAAMFMDVGDAFNDNPEWKKGVGTGIRWISPVGPIRLDFAWGLDAAPGDEFKIHFTLGPELEGHHHHHH | not soluble
MSLDYTYADDSLTLHTDMYQINMMQTYWELGRADLHAVFECYFREMPFNHGYAIFAGLERLVNYLENLTFTESDIAYLREVEEYPEDFLTYLANFEFKCTVRSALEGDLVFNNEPLIQIEGPLAQCQLVETALLNMVNFQTLIATKAARIKSVIGDDPLLEFGTRRAQELDAAIWGTRAAYIGGADATSNVRAGKIFGIPVSGTHAHSLVQSYGNDYEAFMAYAKTHRDCVFLVDTYDTLKAGVPSAIRVAREMGDKINFLGVRIDSGDMAYISKRVREQLDEAGFTEAKIYASNDLDENTILNLKMQKSKIDVWGVGTKLITAYDQPALGAVFKLVSIEGEDGQMKDTIKLSSNAEKVTTPGKKQVWRITRKSDKKSEGDYVTLWNEDPRQEEEIYMFHPVHTFINKYVRDFEARPVLQDIFVEGKRVYELPTLDEIKQYAKENLDSLWEEYKRDLNPQKYPVDLSTDCWNHKMNLLEKVRKDVKHLTETVNKEAEGHHHHHH | soluble
MSLEAFIRSDQYNFIKSQAYILANGHATANDRGVIQALKSLAIEKIIHVFENLTDEQKELIDTVLTVQNREDAESFLMKIKPYVIPFQEVTAQTLKKLFPKAKKLKLPDMEEMDMKEISYLSWIDKGSSRKFIIAKNDKNKFVGLQGTFQSLNKKSICSLCHGHEEVGMFLVEIKGDIPGTFVKKGNYICKDGVACNQNMKSLDKLQDFIERLKKEGHHHHHH | soluble
MSLEAKMEQIYQQIADTLVNIVPEEWKQILLYAEYREGYKKIFFYYYPETRIKPVYSLDITDLFHMNEDKYHELENKLYHCFSRLWEEFKEQEQQQWTNLTYTLDNTGRMKINYGYEDLFELSPVEKQEKWEAEYLEQEIEEGHHHHHH | soluble
MSLEASLLKKNQSIELTIEDLTHDGSGVGKIDGYPFFIPNTLPGEKVTAKIIKLNKNYGFARMENIETVSANRVEPPCAVYSKCGGCSLQHLSYDGQLEFKRNQVEETMKRIGKLNVEVPETLGMENPWRYRNKSQVPVGFVNGKLTAGFYQKRSHAIIDMSTCLIHNEQGDFAVQKTREILAKYGTEPYDEQTGKGDIRHIMTRFAHTTGQLMIVLVTTKERMPFKEEIVRDLVEQLELTSIVQNINPHKTNVIFGDRTKTLWGKDIIEDTIHGIRFAISARSFYQVNPLQTEVLYQQAIDAAELTGEETVIDAYCGIGSISLCLAKKAKHVYGVEIVDQAIQDARANAELNELANTTFETGKAEEVIPSWYKAGIVADVLVVDPPRKGCDEKLLETILAMKPKKVVYVSCNPGTLARDMKILTDGGYVAKKVQPVDMFPMTTHIEAVTVLHLNEGHHHHHH | soluble
